Test results from PMC6821725, “Unique structure and function of viral rhodopsins” (Nature Communications, 2019).

How the values were obtained:
[1] = target: Organic Lake Phycodnavirus rhodopsin II (Organic Lake Phycodnavirus); assay: SEC
[2] = target: Organic Lake Phycodnavirus rhodopsin II (Organic Lake Phycodnavirus); assay: cross-linking; glutaraldehyde (10%), DDM-solubilized multimeric SEC fraction, 2 mg/ml protein, 8 h, 4 °C, read by SDS-PAGE
[3] = target: Organic Lake Phycodnavirus rhodopsin II (Organic Lake Phycodnavirus); assay: cross-linking; glutaraldehyde (10%), monomeric fraction reconstituted into POPC/POPG (4:1 by weight; POPC:POPS in another paragraph) liposomes, 1 mg/ml protein, 8 h, read by SDS-PAGE
[4] = target: Organic Lake Phycodnavirus rhodopsin II (Organic Lake Phycodnavirus); assay: crystal structure; in meso crystallization in monoolein from the monomeric fraction, 0.2 M sodium malonate pH 4.6, 15% PEG 550 MME, 22 °C; space group P2_(1), five molecules in the asymmetric unit
[5] = target: OLPVRII triple mutant E26A/R36A/W203A (Organic Lake Phycodnavirus); assay: SEC
[6] = target: Asp85 (UniProt position 98, WARYADWLFTT); details: cited from earlier work
[7] = target: T1, Organic Lake Phycodnavirus rhodopsin II (OLPVRII) (Organic Lake phycodnavirus, UniProt Z9UQ29F7D0); assay: X-ray crystal structure […] A, in meso; UV-Vis absorption; format: binding; details: covalent; Schiff base to Lys195; crystals from 0.2 M sodium malonate pH 4.6; spectra in DDM
T1 construct: expressed in E. coli SE1 or C41(DE3); monomeric and pentameric fractions in DDM

In the case of “Organic Lake Phycodnavirus rhodopsin II (natural protein)”, the pentamer:monomer ratio in the elution profile (pentamer:monomer) [1] is reported as 4, the stoichiometry N [1] is reported as 5 and the stoichiometry N [2] is reported as 5. The stoichiometry N [3] was 5 and the stoichiometry N [4] was 5.

In the case of “OLPVRII triple mutant E26A/R36A/W203A (natural protein)”, the pentamer:monomer ratio in the elution profile (pentamer:monomer) [5] is reported as 1 and the stoichiometry N [5] is reported as 5.

In the case of “Bacteriorhodopsin (bR) (Halobacterium salinarum)”, the pKa [6] is listed as 2.7.

With `CC1=C(/C=C/C(C)=C/C=C/C(C)=C/C=O)C(C)(C)CCC1` [all-trans-retinal] the “X-ray crystal structure 1.9 A, in meso; UV-Vis absorption” value [7] was “The retinal cofactor is covalently bound to Lys195 through the Schiff base (RSB)”.
